Data as given in article PMC2171418 (The Journal of Cell Biology, 2005).

B1: Spc42p (natural protein, UniProt P36094 1-363, looked up)
chain: MNGSPTPKRYSSKSSRLYDDYYNIPYQYSNPTPMNRDYNDVGSRINADKLVPEEYKRNTEFINKAVQQNKELNFKLREKQNEIFELKKIAETLRSKLEKYVDITKKLEDQNLNLQIKISDLEKKLSDANSTFKEMRFPKVKDPMVDDDPVSENYDQINVPKHRAPDATGNPRTTNKVSNTSDQDSRLKAIERTLSVLTNYVMRSEDGNNDRMSPLPSPLNTILPINNRLNFQEPKRYNPTVKVNPSDDDIMMYESAELKRVEEEIEELKRKILVRKKHDLRKLSLNNQLQELQSMMDGDDNIKLDNVSKHNHATHRHSSQSSRDYSPSSDACLECSNDLYEKNRVKPENNMSETFATPTPNNR
B2: Spc29p (natural protein, UniProt P33419 1-253, looked up)
chain: MDYSNFGNSASKKFQDDTLNRVRKEHEEALKKLREENFSSNTSELGNKKHYRAQERMSSPLHRLSPTGKSDDRKVKSPLDDKLRRQLREGNTRLPPPPFSSYGMPPTNRSNLDRIRRRTSSPVRTDKFASQNVIDDQRLEIKYLERIVYDQGTVIDNLTSRITRLESFILNSISDRGDKNFASLEHSRSFSGFPTNKTYGLQMGGLYENDMPYRRSSDNINKEGAREDRSSQIHIENESTEDILKILSSSFHN
B3: Spc110p (natural protein, UniProt P32380 1-944, looked up)
chain: MDEASHLPNGSLKNMEFTPVGFIKSKRNTTQTQVVSPTKVPNANNGDENEGPVKKRQRRSIDDTIDSTRLFSEASQFDDSFPEIKANIPPSPRSGNVDKSRKRNLIDDLKKDVPMSQPLKEQEVREHQMKKERFDRALESKLLGKRHITYANSDISNKELYINEIKSLKHEIKELRKEKNDTLNNYDTLEEETDDLKNRLQALEKELDAKNKIVNSRKVDDHSGCIEEREQMERKLAELERKLKTVKDQVLELENNSDVQSLKLRSKEDELKNLMNELNELKSNAEEKDTQLEFKKNELRKRTNELNELKIKSDEMDLQLKQKQNESKRLKDELNELETKFSENGSQSSAKENELKMLKNKIAELEEEISTKNSQLIAKEGKLASLMAQLTQLESKLNQRDSQLGSREEELKKTNDKLQKDIRIAREETVSKDERIIDLQKKVKQLENDLFVIKKTHSESKTITDNELESKDKLIKILENDLKVAQEKYSKMEKELKEREFNYKISESKLEDEKTTLNEKISNLAAENSQLKNKIEDNSTATHHMKENYEKQLESLRKDIEEYKESAKDSEDKIEELKIRIAENSAKVSEKRSKDIKQKDEQISDLTQNLKLQEDEISSLKSIIDRYKKDFNQLKSEQSNIQHDLNLQILNLENKLIESEDELKSLRDSQKIEIENWKRKYNNLSLENDRLLTEKESASDKEREISILNRKLDEMDKEKWNLQESKEKYKRELQKVITANDRLRREKEELNENSNNIRIMEDKMTRIKKNYLSEITSLQEENRRLEERLILNERRKDNDSTMQLNDIISYYKLKYHSEVRHNNDLKVINDYLNKVLALGTRRLRLDTRKGEHSLNISLPDDDELDRDYYNSHVYTRYHDYEYPLRFNLNRRGPYFERRLSFKTVALLVLACVRMKRIAFYRRSDDNRLRILRDRIESSSGRISW

Biological target: Mlp2p–protein A (PrA) (S. cerevisiae, UniProt P40457 1-1679)
Assay: far-Western, overlay or dot blot

Chain of Mlp2p–protein A (PrA) (P40457 whole entry): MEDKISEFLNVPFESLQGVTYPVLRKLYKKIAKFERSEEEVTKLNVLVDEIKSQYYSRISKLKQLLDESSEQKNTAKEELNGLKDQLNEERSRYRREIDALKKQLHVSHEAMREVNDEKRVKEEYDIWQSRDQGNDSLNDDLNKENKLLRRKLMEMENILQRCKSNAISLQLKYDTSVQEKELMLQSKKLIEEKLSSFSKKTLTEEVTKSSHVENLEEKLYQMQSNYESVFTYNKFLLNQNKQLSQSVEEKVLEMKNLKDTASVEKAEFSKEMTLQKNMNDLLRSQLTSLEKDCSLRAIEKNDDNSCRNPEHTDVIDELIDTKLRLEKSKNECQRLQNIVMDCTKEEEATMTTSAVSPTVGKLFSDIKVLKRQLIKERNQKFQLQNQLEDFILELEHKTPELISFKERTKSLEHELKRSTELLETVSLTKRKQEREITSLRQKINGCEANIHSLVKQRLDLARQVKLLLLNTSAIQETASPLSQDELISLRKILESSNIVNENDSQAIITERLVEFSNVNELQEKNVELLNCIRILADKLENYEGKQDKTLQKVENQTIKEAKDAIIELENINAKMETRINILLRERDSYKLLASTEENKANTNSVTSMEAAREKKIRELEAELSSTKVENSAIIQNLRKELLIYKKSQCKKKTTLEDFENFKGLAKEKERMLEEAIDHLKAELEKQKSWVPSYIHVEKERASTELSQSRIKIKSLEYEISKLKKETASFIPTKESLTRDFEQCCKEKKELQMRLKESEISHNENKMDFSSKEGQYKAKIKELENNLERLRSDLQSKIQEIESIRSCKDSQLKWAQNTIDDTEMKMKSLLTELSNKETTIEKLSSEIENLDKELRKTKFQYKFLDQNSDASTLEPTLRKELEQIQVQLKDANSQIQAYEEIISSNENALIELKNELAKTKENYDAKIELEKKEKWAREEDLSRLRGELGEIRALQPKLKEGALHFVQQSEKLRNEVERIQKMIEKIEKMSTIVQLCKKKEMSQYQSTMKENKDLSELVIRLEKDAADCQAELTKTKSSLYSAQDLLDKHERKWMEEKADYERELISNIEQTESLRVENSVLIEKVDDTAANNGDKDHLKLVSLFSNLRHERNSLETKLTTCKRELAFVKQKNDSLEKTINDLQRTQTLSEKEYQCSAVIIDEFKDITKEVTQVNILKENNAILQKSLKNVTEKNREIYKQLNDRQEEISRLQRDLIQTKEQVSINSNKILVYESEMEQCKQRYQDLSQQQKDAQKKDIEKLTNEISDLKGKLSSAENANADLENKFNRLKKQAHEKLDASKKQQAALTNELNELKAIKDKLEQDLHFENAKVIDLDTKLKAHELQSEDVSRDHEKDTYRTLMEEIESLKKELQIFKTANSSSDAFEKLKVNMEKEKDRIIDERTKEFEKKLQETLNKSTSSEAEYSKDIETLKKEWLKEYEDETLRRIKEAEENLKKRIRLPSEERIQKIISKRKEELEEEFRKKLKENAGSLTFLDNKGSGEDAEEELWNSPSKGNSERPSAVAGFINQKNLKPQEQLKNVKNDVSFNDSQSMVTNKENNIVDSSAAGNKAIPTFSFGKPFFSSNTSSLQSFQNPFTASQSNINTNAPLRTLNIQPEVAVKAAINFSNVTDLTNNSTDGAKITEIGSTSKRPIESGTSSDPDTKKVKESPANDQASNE

binding result	Binder
binds	B1
binds	B2
binds	B3
